Measured values published in patent publication US9937235B2, “Lipidated peptides as anti-obesity agents” (USTAV ORGANICKE CHEMIE A BIOCHEMIE AKADEMIE VED CR, V.V.I, priority 2012, dated 2018).
Where a SMILES comes first, the peptide text is derived from it. Where no end group is shown, it is not given here. [ ]: non-standard residue; d: D form. The star is where a group is joined. 1Nal = N[C@@H](Cc1cccc2ccccc12)C(=O)O; Myristoyl = CCCCCCCCCCCCCC(=O)*; Lauroyl = CCCCCCCCCCCC(=O)*; Nle = CCCC[C@H](N)C(=O)O; Octanoyl = CCCCCCCC(=O)*; Dap = NC[C@H](N)C(=O)O

T1: rat PrRP receptor (GPR10) in RC-4B/C cells (Rattus norvegicus, UniProt Q64121)
T1 construct: host or cells: RC-4B/C rat pituitary cell line
T1 sequence (Q64121 1-370): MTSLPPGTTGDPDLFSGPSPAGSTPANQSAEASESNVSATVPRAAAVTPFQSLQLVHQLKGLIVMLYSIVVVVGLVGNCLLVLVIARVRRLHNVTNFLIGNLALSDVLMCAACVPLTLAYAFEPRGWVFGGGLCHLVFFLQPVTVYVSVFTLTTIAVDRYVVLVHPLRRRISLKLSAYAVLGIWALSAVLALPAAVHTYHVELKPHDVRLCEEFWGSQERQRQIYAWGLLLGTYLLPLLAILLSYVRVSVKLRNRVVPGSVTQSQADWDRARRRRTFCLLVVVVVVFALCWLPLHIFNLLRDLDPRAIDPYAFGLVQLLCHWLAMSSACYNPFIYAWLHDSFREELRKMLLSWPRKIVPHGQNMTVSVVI

T2: rat PrRP receptor in RC-4B/C cells (rat, UniProt Q64121 1-370)
T2 construct: whole, on cells; also called the rat receptor; GPR10
T2 sequence (looked up): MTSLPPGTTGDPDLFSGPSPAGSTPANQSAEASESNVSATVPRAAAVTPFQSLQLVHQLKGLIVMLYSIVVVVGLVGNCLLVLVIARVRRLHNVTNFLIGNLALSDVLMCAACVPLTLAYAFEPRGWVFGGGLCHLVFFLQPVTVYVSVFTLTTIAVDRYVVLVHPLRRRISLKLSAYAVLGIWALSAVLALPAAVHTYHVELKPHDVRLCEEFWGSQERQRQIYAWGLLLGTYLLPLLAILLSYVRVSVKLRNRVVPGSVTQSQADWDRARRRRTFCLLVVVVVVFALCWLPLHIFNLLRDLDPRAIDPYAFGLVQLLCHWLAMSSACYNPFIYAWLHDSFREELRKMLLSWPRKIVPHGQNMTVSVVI


Assays:
[1] = test system: MAPK/ERK1/2 signaling pathway in RC-4B/C cells; assay: MAPK/ERK1/2 signaling in RC-4B/C cells (Western blot); assay type: cell-based, rat; conditions: 10^−6 mol·l^−1, 5 minute incubation
Experimental: RC-4B/C cells, which were used to determine if lipidated PrRP20 analogs are able to initiate the MAPK/ERK1/2 signaling pathway, were grown in 6-well plates up to the optimal density of […]. Seventeen hours before sample harvest, the growth medium was replaced by a serum-free medium lacking epidermal growth factor (EGF). The respective lipidated PrRP analog was added to each well in the final concentration of 10^−6 mol·l^−1. After a 5 minute incubation at 37° C., the plate was placed on ice and each well was rinsed three times with PBS pH 7.4 (137 mmol·l^−1 NaCl, 2.7 mmol·l^−1 KCl, 8 mmol·l^−1 Na2HPO4.2H2O a 1.76 mmol·l^−1 KH2PO4) and cooled to 4° C. […] Samples were collected in at least three independent experiments.
To determine if the lipidated PrRP20 analogs initiated the MAPK/ERK1/2 signaling pathway, Western blot analysis was used. Electrophoresis was performed on 5%/12% polyacrylamide gel in the presence of SDS (SDS-PAGE) on the instrument MiniProtean 3 (BioRad, Herkules, Calif., USA). Samples that were loaded on the gel were first disintegrated by ultrasound, then heated at 100° C. for 2 minutes, and centrifuged for 5 minutes at 500×g at room temperature. […] Electrophoresis was performed at a constant voltage of 100 V for 10 minutes, or for 60 minutes at 150 V.
To show the presence of phosphorylated proteins in the samples, the proteins from the SDS-PAGE gel were transferred to the Immobilon™-P PVDF (polyvinylidene difluoride) membrane (Sigma-Aldrich, USA). The transfer was performed in blotting buffer at pH 8.3 (25 mmol·l^−1 Tris, 192 mmol·l^−1 glycine and 20% methanol) for 20 hours at 4° C. at a constant voltage of 30 V.
After the protein transfer to the PVDF membrane, the membranes were washed for 5 minutes in TBS washing buffer (20 mmol·l^−1 Tris, 140 mmol·l^−1 NaCl and 0.1% Tween-20) and then incubated for 1 hour in blocking buffer (TBS with 5% non-fat milk powder and 5 mmol·l^−1 Na3VO4 and 50 mmol·l^−1 NaF) at room temperature. Further, the membranes were washed three times for 5 minutes using the TBS washing buffer. The membranes were then incubated with the primary antibody against phospho-p44/42 MAPK(Thr202/Tyr204) (Cell Signaling Technology, Beverly, USA) which was diluted in blocking buffer at 1:1000. After the next three washes with the TBS washing buffer for 5 minutes, the membranes were incubated for 1 hour with rabbit secondary antibody labeled with peroxidase (Sigma, St. Louis, USA) which was diluted in blocking buffer at 1:12,000.
The membranes were then washed three times in TBS washing buffer for 5 minutes and then the solution Femto (Pierce SuperSignal, Thermo Fisher Scientific, Rockford, Ill., USA) was applied. The induced chemiluminiscence was detected by a CCD camera (LAS 3000, Fuji Photo Film GmBH, Düsseldorf, Germany).
To assess the initiation of signaling pathways, a densitometric analysis using the program Quantity One (BioRad, Hercules, Calif., USA) was used. For statistical evaluation of the statistically significant response of the cellular signaling, one-way ANOVA with subsequent Dunnett post-hoc test was used. Data was statistically significant at P<0.05.

[2] = target: T1, rat PrRP receptor (GPR10) in RC-4B/C cells; assay: Competitive binding to rat pituitary RC-4B/C cells; conditions: ^125I-rat PrRP31, RC-4B/C cells
Experimental: Competitive binding experiments were performed according to Motulsky and Neubig (Motulsky, A., et al., “Analyzing radioligand binding data,” Curr Protoc Neurosci, Chapter 7, Unit 7.5, 2002). The rat pituitary cell line RC-4B/C (ATCC, Manassas, USA) was grown on 24-well plates which had their bottom coated with polyethyleneimine. The cells were grown to the optimal density of 300-450 thousand per well. […] Plates were incubated for 60 minutes at room temperature. After incubation, the cells were solubilized in 0.1 mol/l solution of NaOH and the radioactivity bound to the cells was counted using a γ-counter. The experiments were performed in duplicate and repeated at least three times. For evaluation of competitive binding experiments, the program Graph Pad Prism Software (San Diego, Calif., USA) was used. A method of nonlinear regression assuming one-site binding was used.

[3] = target: T2, rat PrRP receptor in RC-4B/C cells; assay: competition with 125I-rat PrRP31 on RC-4B/C cells
Experimental: (§1) The rat pituitary cell line RC-4B/C (ATCC, Manassas, USA) was grown on 24-well plates which had their bottom coated with polyethyleneimine. The cells were grown to the optimal density of 300-450 thousand per well.
(§2) Plates were incubated for 60 minutes at room temperature. After incubation, the cells were solubilized in 0.1 mol/l solution of NaOH and the radioactivity bound to the cells was counted using a γ-counter. The experiments were performed in duplicate and repeated at least three times.

[4] = target: T2, rat PrRP receptor in RC-4B/C cells; assay: competition with 125I-rat PrRP31 on RC-4B/C cells; Ki by Cheng-Prusoff
Experimental: as §1, §2
For evaluation of competitive binding experiments, the program Graph Pad Prism Software (San Diego, Calif., USA) was used. A method of nonlinear regression assuming one-site binding was used.

Row | % of PrRP31 binding [2] [%] | % of PrRP31 binding [3] [%] | Ki [4] [nM] | Molecule | ERK signaling [1]
1 | 172 |  |  | CCCCCCCC(=O)NC[C@H](N)C(=O)N[C@@H](CCCNC(=N)N)C(=O)N[C@@H](C)C(=O)N[C@@H](Cc1c[nH]cn1)C(=O)N[C@@H](CCC(N)=O)C(=O)N[C@@H](Cc1c[nH]cn1)C(=O)N[C@@H](CO)C(=O)N[C@@H](CCCC)C(=O)N[C@@H](CCC(=O)O)C(=O)N[C@H](C(=O)N[C@@H](CCCNC(=N)N)C(=O)N[C@H](C(=O)N1CCC[C@H]1C(=O)N[C@@H](CC(=O)O)C(=O)N[C@H](C(=O)N[C@@H](CC(N)=O)C(=O)N1CCC[C@H]1C(=O)N[C@@H](C)C(=O)N[C@@H](Cc1c[nH]c2ccccc12)C(=O)N[C@@H](Cc1ccc(O)cc1)C(=O)N[C@H](C(=O)NCC(=O)N[C@@H](CCCNC(=N)N)C(=O)NCC(=O)N[C@H](C(=O)N[C@@H](CCCNC(=N)N)C(=O)N1CCC[C@H]1C(=O)N[C@H](C(=O)NCC(=O)N[C@@H](CCCNC(=N)N)C(=O)N[C@@H](Cc1ccccc1)C(N)=O)C(C)C)[C@@H](C)CC)[C@@H](C)O)[C@@H](C)CC)[C@@H](C)O)[C@@H](C)O [Analog 2] (H-[Dap](Octanoyl)RAHQHS[Nle]ETRTPDINPAWYTGRGIRPVGRF-NH2) | agonist
2 |  | 440 | 1.12 | [Dap](Lauroyl)RAHQHS[Nle]ETRTPDINPAWYTGRGIRPVGRF-NH2 (N-terminus assumed; SMILES CCCCCCCCCCCC(=O)NC[C@H](N)C(=O)N[C@@H](CCCNC(=N)N)C(=O)N[C@@H](C)C(=O)N[C@@H](Cc1c[nH]cn1)C(=O)N[C@@H](CCC(N)=O)C(=O)N[C@@H](Cc1c[nH]cn1)C(=O)N[C@@H](CO)C(=O)N[C@@H](CCCC)C(=O)N[C@@H](CCC(=O)O)C(=O)N[C@H](C(=O)N[C@@H](CCCNC(=N)N)C(=O)N[C@H](C(=O)N1CCC[C@H]1C(=O)N[C@@H](CC(=O)O)C(=O)N[C@H](C(=O)N[C@@H](CC(N)=O)C(=O)N1CCC[C@H]1C(=O)N[C@@H](C)C(=O)N[C@@H](Cc1c[nH]c2ccccc12)C(=O)N[C@@H](Cc1ccc(O)cc1)C(=O)N[C@H](C(=O)NCC(=O)N[C@@H](CCCNC(=N)N)C(=O)NCC(=O)N[C@H](C(=O)N[C@@H](CCCNC(=N)N)C(=O)N1CCC[C@H]1C(=O)N[C@H](C(=O)NCC(=O)N[C@@H](CCCNC(=N)N)C(=O)N[C@@H](Cc1ccccc1)C(N)=O)C(C)C)[C@@H](C)CC)[C@@H](C)O)[C@@H](C)CC)[C@@H](C)O)[C@@H](C)O, analog of rat PrRP31) [analog no. 3] | 
3 |  | 172 | 2.86 | [Dap](Octanoyl)RAHQHS[Nle]ETRTPDINPAWYTGRGIRPVGRF-NH2 (N-terminus assumed; SMILES CCCCCCCC(=O)NC[C@H](N)C(=O)N[C@@H](CCCNC(=N)N)C(=O)N[C@@H](C)C(=O)N[C@@H](Cc1c[nH]cn1)C(=O)N[C@@H](CCC(N)=O)C(=O)N[C@@H](Cc1c[nH]cn1)C(=O)N[C@@H](CO)C(=O)N[C@@H](CCCC)C(=O)N[C@@H](CCC(=O)O)C(=O)N[C@H](C(=O)N[C@@H](CCCNC(=N)N)C(=O)N[C@H](C(=O)N1CCC[C@H]1C(=O)N[C@@H](CC(=O)O)C(=O)N[C@H](C(=O)N[C@@H](CC(N)=O)C(=O)N1CCC[C@H]1C(=O)N[C@@H](C)C(=O)N[C@@H](Cc1c[nH]c2ccccc12)C(=O)N[C@@H](Cc1ccc(O)cc1)C(=O)N[C@H](C(=O)NCC(=O)N[C@@H](CCCNC(=N)N)C(=O)NCC(=O)N[C@H](C(=O)N[C@@H](CCCNC(=N)N)C(=O)N1CCC[C@H]1C(=O)N[C@H](C(=O)NCC(=O)N[C@@H](CCCNC(=N)N)C(=O)N[C@@H](Cc1ccccc1)C(N)=O)C(C)C)[C@@H](C)CC)[C@@H](C)O)[C@@H](C)CC)[C@@H](C)O)[C@@H](C)O, analog of rat PrRP31; also called [Dpr(oct)^1]PrRP31) [analog no. 2] | 
4 |  | 13 | 39.2 | [Dap](Octanoyl)RAHQHS[Nle]ETRTPDINPAWYTGRGIRPVGR[1Nal]-NH2 (N-terminus assumed; SMILES CCCCCCCC(=O)NC[C@H](N)C(=O)N[C@@H](CCCNC(=N)N)C(=O)N[C@@H](C)C(=O)N[C@@H](Cc1c[nH]cn1)C(=O)N[C@@H](CCC(N)=O)C(=O)N[C@@H](Cc1c[nH]cn1)C(=O)N[C@@H](CO)C(=O)N[C@@H](CCCC)C(=O)N[C@@H](CCC(=O)O)C(=O)N[C@H](C(=O)N[C@@H](CCCNC(=N)N)C(=O)N[C@H](C(=O)N1CCC[C@H]1C(=O)N[C@@H](CC(=O)O)C(=O)N[C@H](C(=O)N[C@@H](CC(N)=O)C(=O)N1CCC[C@H]1C(=O)N[C@@H](C)C(=O)N[C@@H](Cc1c[nH]c2ccccc12)C(=O)N[C@@H](Cc1ccc(O)cc1)C(=O)N[C@H](C(=O)NCC(=O)N[C@@H](CCCNC(=N)N)C(=O)NCC(=O)N[C@H](C(=O)N[C@@H](CCCNC(=N)N)C(=O)N1CCC[C@H]1C(=O)N[C@H](C(=O)NCC(=O)N[C@@H](CCCNC(=N)N)C(=O)N[C@@H](Cc1cccc2ccccc12)C(N)=O)C(C)C)[C@@H](C)CC)[C@@H](C)O)[C@@H](C)CC)[C@@H](C)O)[C@@H](C)O, analog of rat PrRP31) [analog no. 8] | 
5 |  | 167 | 2.95 | [Dap](Myristoyl)RAHQHS[Nle]ETRTPDINPAWYTGRGIRPVGR[1Nal]-NH2 (N-terminus assumed; SMILES CCCCCCCCCCCCCC(=O)NC[C@H](N)C(=O)N[C@@H](CCCNC(=N)N)C(=O)N[C@@H](C)C(=O)N[C@@H](Cc1c[nH]cn1)C(=O)N[C@@H](CCC(N)=O)C(=O)N[C@@H](Cc1c[nH]cn1)C(=O)N[C@@H](CO)C(=O)N[C@@H](CCCC)C(=O)N[C@@H](CCC(=O)O)C(=O)N[C@H](C(=O)N[C@@H](CCCNC(=N)N)C(=O)N[C@H](C(=O)N1CCC[C@H]1C(=O)N[C@@H](CC(=O)O)C(=O)N[C@H](C(=O)N[C@@H](CC(N)=O)C(=O)N1CCC[C@H]1C(=O)N[C@@H](C)C(=O)N[C@@H](Cc1c[nH]c2ccccc12)C(=O)N[C@@H](Cc1ccc(O)cc1)C(=O)N[C@H](C(=O)NCC(=O)N[C@@H](CCCNC(=N)N)C(=O)NCC(=O)N[C@H](C(=O)N[C@@H](CCCNC(=N)N)C(=O)N1CCC[C@H]1C(=O)N[C@H](C(=O)NCC(=O)N[C@@H](CCCNC(=N)N)C(=O)N[C@@H](Cc1cccc2ccccc12)C(N)=O)C(C)C)[C@@H](C)CC)[C@@H](C)O)[C@@H](C)CC)[C@@H](C)O)[C@@H](C)O, analog of rat PrRP31; also called myristoylated analog [Dpr^1 Nal^31]PrRP31 (No. 9)) [analog no. 9] | 
